Measurements reported in the RNAGym collection of RNA variant scans (doi:10.1073/pnas.2313332121).

B1: TPR t1 (parent)
chain: GACCAAUCUGCCCUCAGAGCUCGAGAACAUCUUCGGAUGCAGAGGAGGCAGGCUUCGGUGGCGCGAUAGCGCCAACGUCCUCAACCUCCAAUGCAUCCCACCACAUGAUGAUGCCUGAAGAGCCUUGGUUUUUUG

Variants of: B1
Assay: polymerase ribozyme fitness, log enrichment relative to wild type (log ratio); higher = more active; in vitro selection for triplet polymerase activity
How it was run: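 Fitness compares each genotype's enrichment to that of the wild type on a logarithmic scale, averaging replicates with inverse-variance weights. The logarithm is base 2. Enrichment came from Illumina sequencing of input and output libraries after one triplicate round of in vitro selection, which included frozen incubation at −7 °C, of PCR-built, transcribed mutant libraries of each subunit of a heterodimeric triplet polymerase ribozyme. Only genotypes with ≥10 input reads and ≥1 read per output were kept.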

Point of comparison: C53G G110A, “polymerase ribozyme fitness (log ratio)” value -1.16. Against it:
- C53A G61U C72U U87C G127A — within 0.2 log units, -1.15
- C53G C124A — higher, 0.714
- C53G C124A G127A — higher, 0.953
- C53G G57A G71A C94G C114A — lower, -5.83
- C53A G60U U106A U109G G113U — lower, -5.78
- C53U A111G — higher, 0.578
- C53G U96C U106A A119G U133A — higher, 1.61
- C53A C115U — within 0.2 log units, -0.961
- C53G U87G — higher, -0.632
- C53G A75U C88A — higher, -0.918
- C53G U54G G63C — lower, -3.77
- C53G U131G — within 0.2 log units, -1.07
- C53G C97A A119U C123U — lower, -4.34
- C53G C70U U78C U106G — lower, -3.34
- C53G C94A U132A — within 0.2 log units, -1.31
- C53A C98U — higher, -0.601
- C53A C98A — lower, -5.56
- C53A G128A — lower, -1.61
- C53U C73U A90G — higher, 0.151
- C53U A95C C115A — higher, 0.802
- C53G C56U G117A — lower, -1.63
- C53G C70G U81C C94G A121C — lower, -7.53
- C53G G60A G61C A91C — lower, -3.39
- C53G G63A A111C A119G — lower, -1.67
- C53G U112G C114A G135U — lower, -5.63
- C53U C72A A91C C94G C101A — lower, -4.4
- C53A G71C C86U — lower, -3.57
- C53A G63U C82A A83C U96C — lower, -3.55
- C53A U55A C82U — higher, -0.263
- C53U A68G — lower, -2.76
- C53U A74U U81C G120A — within 0.2 log units, -1.15
- C53G A91U — lower, -1.68
- C53U A108U — lower, -6.86
- C53U C56G U116A G120C U133G — within 0.2 log units, -1.3
- C53A C89U U126C — lower, -1.37
- C53G G77U C86A — within 0.2 log units, -1.02
- C53G C70U C86U A119G — higher, -0.0477
- C53U C62U A95C — within 0.2 log units, -1.08
- C53G C86A A119G G120U — higher, -0.713
- C53A C89U U131G — higher, 0.265
- C53A G57A G93C — within 0.2 log units, -0.961
- C53U C72A — higher, 0.143
- C53U C72U — higher, -0.842
- C53U C72G — higher, -0.46
- C53G G113U — lower, -2.22
- C53U C73G C85U C102A — lower, -5.04
- C53G A83C — within 0.2 log units, -1.33
- C53G C73A C102A G128C — lower, -4.69
- C53A G63C — lower, -2.92
- C53U C56G C76G U125A — within 0.2 log units, -0.978
- C53G C56G C73A A84C — lower, -2.01
- C53G C79U G122A — lower, -3.43
- C53G G71C — higher, -0.515
- C53G G71A — within 0.2 log units, -1.22
- C53U C62A G93C C104U — lower, -1.76
- C53U C73G C89U U112G — within 0.2 log units, -1
- C53A U132A — higher, -0.786
- C53G C114U G122A — lower, -2.38
- C53U A90C U96G A118U — lower, -1.37
- C53A U106A G120U C123A — higher, 0.599
- C53G U112C C124U — higher, 1.27
- C53G C56A C86U U96G G117U — lower, -3.87
- C53A G63U C114U — lower, -5.9
- C53U C72A U81G G120A U129A — within 0.2 log units, -1.13
- C53A G61C — lower, -4.19
- C53A C98U U112G — lower, -3.36
- C53A C97A — lower, -4.2
- C53A U55A G63A G71U G120C — lower, -4.29
- C53G U116A — lower, -2.67
- C53G C101A A121U U126G — higher, -0.329
- C53A G71U — lower, -1.5
- C53A G60A C85G — within 0.2 log units, -1.1
- C53G C76G A100U — higher, -0.651
- C53A G63U A74U C102G A103C A111G G117C — lower, -6.88
- C53G U125C — lower, -2.29
- C53U C72U U87G G117C — lower, -3.81
- C53A G57U G93C C97U — within 0.2 log units, -0.989
- C53G C98G — lower, -5.63
- C53A C89U C115A — higher, -0.188
- C53A U96A U106A G120A — higher, 0.0353
- C53G C62U — higher, -0.0991
- C53G C62A — within 0.2 log units, -1.3
